From patent US20240301064A1 (published 2024)

B1: PMAB138 (bispecific antibody, human IgG1, kappa)
heavy: EVQLLESGGGLVQPGGSLRLSCAASGFTFSNSDMSWVRQAPGKGLEWVSAITISGGSTYYADSVKGRFTISRDNSKNTLYLQMNSLRAEDTAVYYCARGRGGSGWLDYWGQGTLVTVSSASTKGPSVFPLAPSSKSTSGGTAALGCLVKDYFPEPVTVSWNSGALTSGVHTFPAVLQSSGLYSLSSVVTVPSSSLGTQTYICNVNHKPSNTKVDKKVEPKSCDKTHTCPPCPAPEAAGAPSVFLFPPKPKDTLMISRTPEVTCVVVDVSHEDPEVKFNWYVDGVEVHNAKTKPREEQYNSTYRVVSVLTVLHQDWLNGKEYKCKVSNKALPAPIEKTISKAKGQPREPQVYTLPPSREEMTKNQVSLTCLVKGFYPSDIAVEWESNGQPENNYKTTPPVLDSDGSFFLYSKLTVDKSRWQQGNVFSCSVMHEALHNHYTQKSLSLSPGGGGGSGGGGSGGGGSEVQLLESGGGLVQPGGSLRLSCAASGFTFSDFWMHWVRQAPGKGLEWISYISGDSGYTNYADSVKGRFTISRDNSKNTLYLQMNSLRAEDTAVYYCARDRPYYYYMDVWGKGTTVTVSSGGGGSGGGGSGGGGSGGGGSDIQMTQSPSSLSASVGDRVTITCRASQSVSRSLAWYQQKPGKAPKLLIYAASSLQSGVPSRFSGSGSGTDFTLTISSLQPEDFATYYCQQYKSYPVTFGQGTKVEIK
light: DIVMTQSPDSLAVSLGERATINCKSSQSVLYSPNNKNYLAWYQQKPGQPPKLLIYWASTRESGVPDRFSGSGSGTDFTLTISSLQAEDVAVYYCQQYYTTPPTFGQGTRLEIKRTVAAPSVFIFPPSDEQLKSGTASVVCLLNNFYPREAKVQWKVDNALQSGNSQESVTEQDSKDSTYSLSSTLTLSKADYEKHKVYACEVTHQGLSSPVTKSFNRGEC
B2: PMAB142 (bispecific antibody, human IgG1, kappa)
heavy: EVQLLESGGGLVQPGGSLRLSCAASGFTFSNSDMSWVRQAPGKGLEWVSGITISGGSTYYADSVKGRFTISRDNSKNTLYLQMNSLRAEDTAVYYCARGRGGSGWLDYWGQGTLVTVSSASTKGPSVFPLAPSSKSTSGGTAALGCLVKDYFPEPVTVSWNSGALTSGVHTFPAVLQSSGLYSLSSVVTVPSSSLGTQTYICNVNHKPSNTKVDKKVEPKSCDKTHTCPPCPAPEAAGAPSVFLFPPKPKDTLMISRTPEVTCVVVDVSHEDPEVKFNWYVDGVEVHNAKTKPREEQYNSTYRVVSVLTVLHQDWLNGKEYKCKVSNKALPAPIEKTISKAKGQPREPQVYTLPPSREEMTKNQVSLTCLVKGFYPSDIAVEWESNGQPENNYKTTPPVLDSDGSFFLYSKLTVDKSRWQQGNVFSCSVMHEALHNHYTQKSLSLSPGGGGGSGGGGSGGGGSEVQLLESGGGLVQPGGSLRLSCAASGFTFSDFWMHWVRQAPGKGLEWISYISGDSGYTNYADSVKGRFTISRDNSKNTLYLQMNSLRAEDTAVYYCARDRPYYYYMDVWGKGTTVTVSSGGGGSGGGGSGGGGSGGGGSDIQMTQSPSSLSASVGDRVTITCRASQSVSRSLAWYQQKPGKAPKLLIYAASSLQSGVPSRFSGSGSGTDFTLTISSLQPEDFATYYCQQYKSYPVTFGQGTKVEIK
light: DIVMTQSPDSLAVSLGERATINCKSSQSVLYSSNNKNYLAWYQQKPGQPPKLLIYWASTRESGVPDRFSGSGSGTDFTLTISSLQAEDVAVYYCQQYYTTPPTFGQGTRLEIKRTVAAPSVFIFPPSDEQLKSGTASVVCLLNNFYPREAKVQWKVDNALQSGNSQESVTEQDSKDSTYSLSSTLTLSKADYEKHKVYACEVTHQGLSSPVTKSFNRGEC
B3: PMAB175 (bispecific antibody, human IgG1, kappa)
heavy: EVQLLESGGGLVQPGGSLRLSCAASGFTFSSYDMSWVRQAPGKGLEWVSGITISGGSTYYADSVKGRFTISRDNSKNTLYLQMNSLRAEDTAVYYCARGRGGSGWLDYWGQGTLVTVSSASTKGPSVFPLAPSSKSTSGGTAALGCLVKDYFPEPVTVSWNSGALTSGVHTFPAVLQSSGLYSLSSVVTVPSSSLGTQTYICNVNHKPSNTKVDKKVEPKSCDKTHTCPPCPAPEAAGAPSVFLFPPKPKDTLMISRTPEVTCVVVDVSHEDPEVKFNWYVDGVEVHNAKTKPREEQYNSTYRVVSVLTVLHQDWLNGKEYKCKVSNKALPAPIEKTISKAKGQPREPQVYTLPPSREEMTKNQVSLTCLVKGFYPSDIAVEWESNGQPENNYKTTPPVLDSDGSFFLYSKLTVDKSRWQQGNVFSCSVMHEALHNHYTQKSLSLSPGGGGGSGGGGSGGGGSEVQLLESGGGLVQPGGSLRLSCAASGFTFSDFWMHWVRQAPGKGLEWISYISGDSGYTNYADSVKGRFTISRDNSKNTLYLQMNSLRAEDTAVYYCARDRPYYYYMDVWGKGTTVTVSSGGGGSGGGGSGGGGSGGGGSDIQMTQSPSSLSASVGDRVTITCRASQSVSRSLAWYQQKPGKAPKLLIYAASSLQSGVPSRFSGSGSGTDFTLTISSLQPEDFATYYCQQYKSYPVTFGQGTKVEIK
light: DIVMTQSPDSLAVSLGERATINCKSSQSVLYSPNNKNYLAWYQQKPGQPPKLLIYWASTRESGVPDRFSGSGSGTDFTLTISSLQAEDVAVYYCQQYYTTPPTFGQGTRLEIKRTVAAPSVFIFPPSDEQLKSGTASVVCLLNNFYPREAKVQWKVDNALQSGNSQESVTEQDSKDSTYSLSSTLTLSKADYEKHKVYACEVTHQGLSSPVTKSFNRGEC
B4: PMAB177 (bispecific antibody, human IgG1, kappa)
heavy: EVQLLESGGGLVQPGGSLRLSCAASGFTFSSYDMSWVRQAPGKGLEWVSGISISGGSTYYADSVKGRFTISRDNSKNTLYLQMNSLRAEDTAVYYCARGRGGSGWLDYWGQGTLVTVSSASTKGPSVFPLAPSSKSTSGGTAALGCLVKDYFPEPVTVSWNSGALTSGVHTFPAVLQSSGLYSLSSVVTVPSSSLGTQTYICNVNHKPSNTKVDKKVEPKSCDKTHTCPPCPAPEAAGAPSVFLFPPKPKDTLMISRTPEVTCVVVDVSHEDPEVKFNWYVDGVEVHNAKTKPREEQYNSTYRVVSVLTVLHQDWLNGKEYKCKVSNKALPAPIEKTISKAKGQPREPQVYTLPPSREEMTKNQVSLTCLVKGFYPSDIAVEWESNGQPENNYKTTPPVLDSDGSFFLYSKLTVDKSRWQQGNVFSCSVMHEALHNHYTQKSLSLSPGGGGGSGGGGSGGGGSEVQLLESGGGLVQPGGSLRLSCAASGFTFSDFWMHWVRQAPGKGLEWISYISGDSGYTNYADSVKGRFTISRDNSKNTLYLQMNSLRAEDTAVYYCARDRPYYYYMDVWGKGTTVTVSSGGGGSGGGGSGGGGSGGGGSDIQMTQSPSSLSASVGDRVTITCRASQSVSRSLAWYQQKPGKAPKLLIYAASSLQSGVPSRFSGSGSGTDFTLTISSLQPEDFATYYCQQYKSYPVTFGQGTKVEIK
light: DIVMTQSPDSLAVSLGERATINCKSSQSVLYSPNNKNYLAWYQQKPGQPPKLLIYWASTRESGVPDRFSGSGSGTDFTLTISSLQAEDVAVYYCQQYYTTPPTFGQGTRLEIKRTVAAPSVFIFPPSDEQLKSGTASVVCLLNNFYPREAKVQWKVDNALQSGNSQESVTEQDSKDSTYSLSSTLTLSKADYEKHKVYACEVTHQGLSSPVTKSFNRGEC
B5: PMAB143 (bispecific antibody, human IgG1, kappa)
heavy: EVQLLESGGGLVQPGGSLRLSCAASGFTFSNSDMSWVRQAPGKGLEWVSGITISGGSTYYADSVKGRFTISRDNSKNTLYLQMNSLRAEDTAVYYCARGRGGSGWLDYWGQGTLVTVSSASTKGPSVFPLAPSSKSTSGGTAALGCLVKDYFPEPVTVSWNSGALTSGVHTFPAVLQSSGLYSLSSVVTVPSSSLGTQTYICNVNHKPSNTKVDKKVEPKSCDKTHTCPPCPAPEAAGAPSVFLFPPKPKDTLMISRTPEVTCVVVDVSHEDPEVKFNWYVDGVEVHNAKTKPREEQYNSTYRVVSVLTVLHQDWLNGKEYKCKVSNKALPAPIEKTISKAKGQPREPQVYTLPPSREEMTKNQVSLTCLVKGFYPSDIAVEWESNGQPENNYKTTPPVLDSDGSFFLYSKLTVDKSRWQQGNVFSCSVMHEALHNHYTQKSLSLSPGGGGGSGGGGSGGGGSEVQLLESGGGLVQPGGSLRLSCAASGFTFSDFWMHWVRQAPGKGLEWISYISGDSGYTNYADSVKGRFTISRDNSKNTLYLQMNSLRAEDTAVYYCARDRPYYYYMDVWGKGTTVTVSSGGGGSGGGGSGGGGSGGGGSDIQMTQSPSSLSASVGDRVTITCRASQSVSRSLAWYQQKPGKAPKLLIYAASSLQSGVPSRFSGSGSGTDFTLTISSLQPEDFATYYCQQYKSYPVTFGQGTKVEIK
light: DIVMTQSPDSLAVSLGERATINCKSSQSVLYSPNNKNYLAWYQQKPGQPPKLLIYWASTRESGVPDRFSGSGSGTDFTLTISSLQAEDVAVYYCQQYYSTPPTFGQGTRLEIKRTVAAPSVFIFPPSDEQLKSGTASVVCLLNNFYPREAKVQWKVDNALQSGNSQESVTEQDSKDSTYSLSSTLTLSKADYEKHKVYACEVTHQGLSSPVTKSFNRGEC
B6: PMAB140 (bispecific antibody, human IgG1, kappa)
heavy: EVQLLESGGGLVQPGGSLRLSCAASGFTFSNSDMSWVRQAPGKGLEWVSGITGSGGSTYYADSVKGRFTISRDNSKNTLYLQMNSLRAEDTAVYYCARGRGGSGWLDYWGQGTLVTVSSASTKGPSVFPLAPSSKSTSGGTAALGCLVKDYFPEPVTVSWNSGALTSGVHTFPAVLQSSGLYSLSSVVTVPSSSLGTQTYICNVNHKPSNTKVDKKVEPKSCDKTHTCPPCPAPEAAGAPSVFLFPPKPKDTLMISRTPEVTCVVVDVSHEDPEVKFNWYVDGVEVHNAKTKPREEQYNSTYRVVSVLTVLHQDWLNGKEYKCKVSNKALPAPIEKTISKAKGQPREPQVYTLPPSREEMTKNQVSLTCLVKGFYPSDIAVEWESNGQPENNYKTTPPVLDSDGSFFLYSKLTVDKSRWQQGNVFSCSVMHEALHNHYTQKSLSLSPGGGGGSGGGGSGGGGSEVQLLESGGGLVQPGGSLRLSCAASGFTFSDFWMHWVRQAPGKGLEWISYISGDSGYTNYADSVKGRFTISRDNSKNTLYLQMNSLRAEDTAVYYCARDRPYYYYMDVWGKGTTVTVSSGGGGSGGGGSGGGGSGGGGSDIQMTQSPSSLSASVGDRVTITCRASQSVSRSLAWYQQKPGKAPKLLIYAASSLQSGVPSRFSGSGSGTDFTLTISSLQPEDFATYYCQQYKSYPVTFGQGTKVEIK
light: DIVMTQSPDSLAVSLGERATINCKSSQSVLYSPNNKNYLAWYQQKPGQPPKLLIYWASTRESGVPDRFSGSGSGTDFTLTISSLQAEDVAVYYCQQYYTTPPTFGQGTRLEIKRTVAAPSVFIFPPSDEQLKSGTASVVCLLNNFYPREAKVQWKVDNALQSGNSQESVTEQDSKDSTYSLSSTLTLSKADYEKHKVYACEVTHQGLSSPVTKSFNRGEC
B7: PMAB139 (bispecific antibody, human IgG1, kappa)
heavy: EVQLLESGGGLVQPGGSLRLSCAASGFTFSNSDMSWVRQAPGKGLEWVSGISISGGSTYYADSVKGRFTISRDNSKNTLYLQMNSLRAEDTAVYYCARGRGGSGWLDYWGQGTLVTVSSASTKGPSVFPLAPSSKSTSGGTAALGCLVKDYFPEPVTVSWNSGALTSGVHTFPAVLQSSGLYSLSSVVTVPSSSLGTQTYICNVNHKPSNTKVDKKVEPKSCDKTHTCPPCPAPEAAGAPSVFLFPPKPKDTLMISRTPEVTCVVVDVSHEDPEVKFNWYVDGVEVHNAKTKPREEQYNSTYRVVSVLTVLHQDWLNGKEYKCKVSNKALPAPIEKTISKAKGQPREPQVYTLPPSREEMTKNQVSLTCLVKGFYPSDIAVEWESNGQPENNYKTTPPVLDSDGSFFLYSKLTVDKSRWQQGNVFSCSVMHEALHNHYTQKSLSLSPGGGGGSGGGGSGGGGSEVQLLESGGGLVQPGGSLRLSCAASGFTFSDFWMHWVRQAPGKGLEWISYISGDSGYTNYADSVKGRFTISRDNSKNTLYLQMNSLRAEDTAVYYCARDRPYYYYMDVWGKGTTVTVSSGGGGSGGGGSGGGGSGGGGSDIQMTQSPSSLSASVGDRVTITCRASQSVSRSLAWYQQKPGKAPKLLIYAASSLQSGVPSRFSGSGSGTDFTLTISSLQPEDFATYYCQQYKSYPVTFGQGTKVEIK
light: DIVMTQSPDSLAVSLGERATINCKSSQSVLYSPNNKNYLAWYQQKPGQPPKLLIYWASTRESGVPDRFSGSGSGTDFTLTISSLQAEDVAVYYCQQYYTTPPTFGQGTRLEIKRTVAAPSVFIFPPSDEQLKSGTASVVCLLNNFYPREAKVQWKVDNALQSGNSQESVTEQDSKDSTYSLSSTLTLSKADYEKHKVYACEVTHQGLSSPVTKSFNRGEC
B8: PMAB176 (bispecific antibody, human IgG1, kappa)
heavy: EVQLLESGGGLVQPGGSLRLSCAASGFTFSSYDMSWVRQAPGKGLEWVSAITISGGSTYYADSVKGRFTISRDNSKNTLYLQMNSLRAEDTAVYYCARGRGGSGWLDYWGQGTLVTVSSASTKGPSVFPLAPSSKSTSGGTAALGCLVKDYFPEPVTVSWNSGALTSGVHTFPAVLQSSGLYSLSSVVTVPSSSLGTQTYICNVNHKPSNTKVDKKVEPKSCDKTHTCPPCPAPEAAGAPSVFLFPPKPKDTLMISRTPEVTCVVVDVSHEDPEVKFNWYVDGVEVHNAKTKPREEQYNSTYRVVSVLTVLHQDWLNGKEYKCKVSNKALPAPIEKTISKAKGQPREPQVYTLPPSREEMTKNQVSLTCLVKGFYPSDIAVEWESNGQPENNYKTTPPVLDSDGSFFLYSKLTVDKSRWQQGNVFSCSVMHEALHNHYTQKSLSLSPGGGGGSGGGGSGGGGSEVQLLESGGGLVQPGGSLRLSCAASGFTFSDFWMHWVRQAPGKGLEWISYISGDSGYTNYADSVKGRFTISRDNSKNTLYLQMNSLRAEDTAVYYCARDRPYYYYMDVWGKGTTVTVSSGGGGSGGGGSGGGGSGGGGSDIQMTQSPSSLSASVGDRVTITCRASQSVSRSLAWYQQKPGKAPKLLIYAASSLQSGVPSRFSGSGSGTDFTLTISSLQPEDFATYYCQQYKSYPVTFGQGTKVEIK
light: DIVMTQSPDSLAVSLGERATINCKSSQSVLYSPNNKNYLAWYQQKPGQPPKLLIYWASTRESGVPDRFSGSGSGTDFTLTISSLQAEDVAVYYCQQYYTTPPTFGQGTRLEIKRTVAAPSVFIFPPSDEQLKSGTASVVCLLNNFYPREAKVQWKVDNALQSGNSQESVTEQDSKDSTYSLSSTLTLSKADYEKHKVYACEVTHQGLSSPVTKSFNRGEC

Each binder was assayed against T1, human PD-1 (human, UniProt Q15116 25-167, limits assumed) (assay: BLI, antibody on AHC tip, soluble PD-1).
T1 construct: also called huPD-1
T1 sequence (Q15116 25-167 limits assumed): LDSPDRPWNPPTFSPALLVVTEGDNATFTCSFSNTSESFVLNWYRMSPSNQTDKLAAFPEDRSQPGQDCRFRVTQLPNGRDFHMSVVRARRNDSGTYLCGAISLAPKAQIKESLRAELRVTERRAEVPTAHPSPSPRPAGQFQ
For B1, the Kd was 0.053 µM.
For B2, the Kd was 0.033 µM.
Binder B3 has a Kd of 0.0771 µM.
B4 showed a Kd of 0.809 µM.
In the case of B5, the Kd is reported as 0.017 µM.
B6 showed a Kd of 0.022 µM.
Work on B7 yielded a Kd of 0.05 µM.
Binder B8 has a Kd of 0.894 µM.
